Where a chain is given by its changes, count along the chain named.
B1: murine antibody 14A7 (A1) (antibody, V domains shown)
VH: QVQLKQSGAELVRPGTSVKMSCKATEYTFTNNWIAWVKQRPGHGLEWVGDIHPGGGFTNYNEKFKVKATLTADTSSSTAYMQLRSLTSEDSAIYYCAGSKTRDYDAWFAYWGQGTLVTVSA
VL: DIVMTQAPSSLAVSVGEKVTLNCKSSQSLLYTGNQKNYLAWYQQKPGQSPKLLIYWASTRESGVPDRFTGSGSGTDFTLTISNVKAEDLAVYFCQQYYTYRTFGGGTKLEIK
notes: Mouse hybridoma antibody (subclone 14A7-4), tested as culture supernatant or purified from it; Only the variable domains are printed; also called 14A7-4
B2: chimeric antibody 14A7(chi) (antibody, V domains shown)
VH: B1 VH
VL: DIVMTQAPSSLAVSVGEKVTLNCKSSQSLLYTGNQKNYLAWYQQKPGQSPKLLIYWASTRESGVPDRFTGSGSGTDFTLTISNVKAEDLAVYFCQQYYTYRTFGGGTKLEIKR
notes: also called 14A7-4(chi)
B3: humanized antibody 14A7(hz) (antibody, V domains shown)
VH: QVQLVQSGAEVKKPGASVKVSCKASEYTFTNNWIAWVRQAPGQGLEWVGDIHPGGGFTNYNEKFKVRATLTADTSTSTAYMELSSLRSEDTAVYYCAGSKTRDYDAWFAYWGQGTTVTVSS
VL: DIQMTQSPSTLSASVGDRVTITCKSSQSLLYTGNQKNYLAWYQQKPGKAPKLLIYWASTRESGVPSRFSGSGSGTEFTLTISSLQPDDFATYYCQQYYTYRTFGQGTKVEIKR
notes: also called 14A7-4(hz)
B4: murine antibody 13C9 (A3) (antibody, V domains shown)
VH: QVQLKQSGAGLVKPGASVKLSCKASGYIFTEYIIHWVKQRSGQGLEWIGWFYPGSDNIKYNEKFKDKATLTADKSSSTVYMELSRLTSEDSAVYFCARHETGYFFDYWGQGTTLTVSS
VL: DIVITQSPAIMSASPGEKVTMTCSASSSVSKMNWYQQKSGTSPKRWIYDTSKLASGVPSRFSGSGSGTSYSLTISSMEAEDAATYYCQQWSSNPLTFGSGTKLELKR
notes: Mouse hybridoma antibody (subclone 13C9-1), tested as culture supernatant or purified; Only variable domains printed (the VL as printed ends in RA); also called 13C9-1
B5: chimeric antibody 13C9-1(chi) (antibody, V domains shown)
VH: B4 VH
VL: B4 VL
notes: Chimeric antibody of murine 13C9
B6: murine antibody 15G10 (A2) (antibody, V domains shown)
VH: QVQLKQSGPELVKPGASVKTSCKASGYTFTNYVVHWVKQNPGQGLEWIGYVNPNNDGTIFNEKFKDKAILTSDKSSSTAYMELSSLTSEDSAVYYCARSPFAHWGQGTLVTVSA
VL: QIVLTQSPASLTVSLGQRATISCSASESVDFYGTSLMQWFQQKPGQPPKLLVYTASNVDSEVPARFSGSGSGTDFSLNIHPVEEDDIAMYFCHQTRKVPYTFGGGTKLEIK
notes: Mouse hybridoma antibody (subclone 15G10-3), tested as culture supernatant; Only variable domains printed; also called 15G10-3
B7: murine antibody 8A2 (A8) (antibody, V domains shown)
VH: QVQLKQSGPGLVAPSQSLSITCTVSGFSLTGYGVNWVRQPPGKGLEWLGKIWGDGITDYNSALKSRLSISKDNSKSQVFLKMNSLQTDDTARYYCARDVMDYWGQGTSVTVSS
VL: QIVLTQSPAIMSASPGEKVTMTCSASSSISYMHWYQQKPGTSPKRWIYDTSKLASGVPARFSGSESGTSYSLTISSMEAEDAATYYCHHRSPYPTFGAGTKLELK
notes: Mouse hybridoma antibody (subclone 8A2-2); Only variable domains printed; also called 8A2-2
B8: murine antibody 28B1 (A5), subclone 28B1-2 (antibody, V domains shown)
VH: QVQLKQSGAELVKPGASVMLSCTASAFNIDDTYIHWVKQRPEQGLEWIGRIDPANGNTDYDPECQGKATITTDMSSNTAYLQLSSLTSEDTAVYFCARGLRLPGLVYWGRGTLVTVSA
VL: DIQMTQTTSSLSASLGDRVTISCRASQDISNYLNWYQQKPDGTVKLLIYYTSILYSGVPSRFSGSGSGTDYSLTINTLEEEDIATYFCQQGNTLPWTFGGGTKLEIIR
notes: Mouse hybridoma antibody; Only variable domains printed
B9: murine antibody 22B10 (A6) (antibody, V domains shown)
VH: QVQLKQSGAELVKPGASVELSCTASGFNIEDTYLHWVNQRPEQGLEWIGRIDPANGNTYYDPKFQGKATITTDTSSNTAYLQLSRLTSEDTAVYYCARGLRLPGFPYWGQGTLVTVSA
VL: B8 VL with T8P, N34S, Y55H, T74A, N76S, T77N, E79D, E80Q, I107K
notes: Mouse hybridoma antibody (subclone 22B10-1); Only variable domains printed; also called 22B10-1
B10: murine antibody 18B4 (A4) (antibody, V domains shown)
VH: QVQLKQSGPELEKPGASVKISCKASGYSFTGYNMNWVKQSNGKSLEWIGNIDPYYGVTHYNQKFKGKATLTVDESSSTASMQLKSLTSEDSAIYYCARGIPFYGLDYWGQGTSVTVSS
VL: B4 VL with D1Q, I4L, S24G, K31F, N33H, S59A, S91N, S92T, L95F, L105I
notes: Mouse hybridoma antibody (subclone 18B4-2); Only variable domains printed; also called 18B4-2
B11: murine antibody 2E5 (A10) (antibody, V domains shown)
VH: B7 VH with D88E
VL: DVLMTQIPLSLPVSLGDQASISCRSSQSIEQSNGNTYLEWYLQKPGQSPKVLIYKVSNRFSGVPDRFSGSGSGTDFTLKISRVESEDLGVYYCFQGSHVPYTFGGGTKLEIK
notes: Mouse hybridoma antibody (subclone 2E5-9); Only variable domains printed; also called 2E5-9
B12: murine antibody 10A3 (A11) (antibody, V domains shown)
VH: B7 VH with D88E
VL: QIVLTQSPAIMSASPGEKVTMTCSASSSINYMHWFQQKPGTSPKRWIYDTSKLASGVPARFSGSESGTSYSLTISSMEAEDAATYYCHHRSPYPTFGAGTKLELKR
notes: Mouse hybridoma antibody (subclone 10A3-3); Only variable domains printed; also called 10A3-3
B13: murine antibody 7E5 (A9) (antibody, V domains shown)
VH: B7 VH with I56S, N60T, M82V
VL: B7 VL with Y35F, H89Q
notes: Mouse hybridoma antibody (subclone 7E5-2); Only variable domains printed; also called 7E5-2
B14: murine antibody 28B1 (A5), subclone 28B1-7 (antibody, V domains shown)
VH: B8 VH
VL: B8 VL
B15: murine antibody 6G5 (A12) (antibody, V domains shown)
VH: B1 VH with V48I, F57Y, V66G, R84S, A106S
VL: B4 VL
notes: Mouse hybridoma antibody (subclone 6G5-2); Only variable domains printed; the printed VL is identical to that of 13C9; also called 6G5-2

Target: T1, human PD-L1 on 293T-h-PDL1 cells (human, UniProt Q9NZQ7 19-238)
Test: FACS, purified antibody on 293T-h-PDL1 cells
Description: (§1) Then 100 μl of flow cytometry buffer was added to each flow cytometry tube and resuspension was performed. […] Then 1 ml of flow cytometry buffer was added and centrifuged at 1200 rpm for 5 minutes at room temperature, the supernatant was discarded and the washing was repeated three times. 250 μl of flow cytometry buffer was added to each flow cytometry tube again, the pellet was resuspended and mixed. The resulting samples was detected by the machine.
Control tube 1 (no antibody and secondary antibody, only cell suspension was added) and control tube 2 (no antibody, only cell suspension and secondary antibody was added) were set.

T1 sequence (Q9NZQ7 19-238): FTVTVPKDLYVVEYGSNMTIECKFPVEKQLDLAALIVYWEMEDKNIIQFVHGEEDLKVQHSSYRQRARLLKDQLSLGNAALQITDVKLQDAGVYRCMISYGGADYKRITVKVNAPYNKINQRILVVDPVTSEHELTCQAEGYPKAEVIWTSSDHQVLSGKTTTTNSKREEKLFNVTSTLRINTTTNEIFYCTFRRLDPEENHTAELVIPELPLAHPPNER

Row | EC50 | Binder
1 | 0.8 µg/mL | B1
2 | 1.32 µg/mL | B2
3 | 0.77 µg/mL | B3
4 | 0.49 µg/mL | B4
5 | 1.42 µg/mL | B5

Target: T1, human PD-L1 on 293T-h-PDL1 cells
Test: FACS, hybridoma culture supernatant on 293T-h-PDL1 cells
Description: 1 ml of flow cytometry buffer was added to each flow cytometry tube and centrifuged at 1200 rpm for 5 minutes. The supernatant was discarded and the washing was repeated three times. At the same time, both control tube 1 (no culture supernatant and secondary antibody below, only the cell suspension was added) and control tube 2 (no culture supernatant, only cell suspension and secondary antibody below were added) were set.
as §1

Row | EC50 | Binder
6 | 0.538 µg/mL | B1
7 | 1.45 µg/mL | B6
8 | 0.336 µg/mL | B7
9 | 0.39 µg/mL | B8
10 | 0.517 µg/mL | B9
11 | 0.44 µg/mL | B4
12 | 0.125 µg/mL | B10

Target: T2, fusion protein of the extracellular region of human PD-L1 and human IgG1-FC (human, UniProt Q9NZQ7 19-238)
T2 construct: PD-L1 is put first by convention; also called fusion protein PD-L1 (hFC tag)
Test: FACS blocking of PD-L1-hFc binding to 293T-h-PD1 cells, purified antibody
Description: (§2) Each well was then washed twice by adding 400 μl FACS buffer, PE anti-human IgG Fc secondary antibody was added and incubated for 1 hour, after which each well was washed twice by adding 400 μl FACS buffer. Detection was performed.

T2 sequence (Q9NZQ7 19-238): as above

Row | IC50 | Binder
13 | 2.27 µg/mL | B1
14 | 5.66 µg/mL | B2
15 | 1.95 µg/mL | B3
16 | 2.38 µg/mL | B4
17 | 2.47 µg/mL | B5

Target: T2, fusion protein of the extracellular …
Test: FACS blocking of PD-L1-hFc binding to 293T-h-PD1 cells, hybridoma supernatant
Description: as §2

Row | IC50 | Binder
18 | 2.31 µg/mL | B1
19 | 4 µg/mL | B6
20 | 5.17 µg/mL | B7
21 | 2.31 µg/mL | B8
22 | 4.31 µg/mL | B9
23 | 1.95 µg/mL | B4

Target: T3, extracellular region of human PD-L1 protein (positions 19-238 of SEQ ID NO: 3) (human, UniProt Q9NZQ7 19-238)
T3 construct: also called Human PD-L1-his; antigen PD-L1
Test: ForteBio Octet (BLI), antibody 20 nM, PD-L1 ECD from 30 nM in 3-fold dilutions
Description: The murine antibody, chimeric antibody and humanized antibody of the present invention were dissolved in PBS to obtain 20 nM solutions.
The affinities of the antibody-antigen were determined using the ForteBio Octet as an affinity detection instrument.

T3 sequence (Q9NZQ7 19-238): as above

Row | Kd | koff | Binder
24 | 0.545 nM | 0.000359 s⁻¹ | B1
25 | 4.56 nM | 0.00173 s⁻¹ | B2
26 | 0.884 nM | 0.000358 s⁻¹ | B3

Target: T3, extracellular region of human PD-L1 …
Test: ForteBio Octet (BLI), antibody immobilized, PD-L1 ECD 6.25-200 nM; culture supernatant
Description: (§3) A 96-well plate was obtained, and 200 μl SD buffer (1×PBS+0.02% Tween20+0.1% BSA) was added to each well, the plate was placed in ForteBio Octet and pre-circulated.

Row | Kd | koff | Binder
27 | 0.0557 nM | 2.78e-05 s⁻¹ | B1
28 | 2.04 nM | 0.00034 s⁻¹ | B7
29 | 0.175 nM | 5.61e-05 s⁻¹ | B11
30 | 0.34 nM | 5.15e-05 s⁻¹ | B12
31 | 0.498 nM | 0.000172 s⁻¹ | B13
32 | 0.00924 nM | 6.26e-06 s⁻¹ | B8
33 | 0.0714 nM | 4.43e-05 s⁻¹ | B9
34 | < 0.001 nM | < 1e-07 s⁻¹ | B14
35 | 0.00181 nM | 6.32e-07 s⁻¹ | B4
36 | 0.586 nM | 0.000662 s⁻¹ | B10
37 | 0.111 nM | 7.94e-05 s⁻¹ | B15

Target: T3, extracellular region of human PD-L1 …
Test: ForteBio Octet (BLI), antibody immobilized, PD-L1 ECD 6.25-200 nM; antibody after purification
Description: as §3
The antibody was immobilized and the concentration of the antibody after supernatant purification was 10 μg/ml.

Row | Kd | koff | Binder
38 | 0.882 nM | 0.000647 s⁻¹ | B1
39 | 4200 nM | 0.137 s⁻¹ | B7
40 | 15 nM | 0.00376 s⁻¹ | B11
41 | 906 nM | 0.0296 s⁻¹ | B12
42 | 3930 nM | 0.11 s⁻¹ | B13
43 | 0.785 nM | 0.000785 s⁻¹ | B8
44 | 0.528 nM | 0.000481 s⁻¹ | B9
45 | 0.748 nM | 0.000723 s⁻¹ | B14
46 | 2.78 nM | 0.00117 s⁻¹ | B4
47 | 936 nM | 0.191 s⁻¹ | B10
48 | 1.07 nM | 0.000838 s⁻¹ | B15

From patent US20220396624A1 (HC BIOPHARMA SHANGHAI, published 2022)
